Measurements published in article PMC12072009, “Catalytic Efficiency Improvement in Cellobiohydrolase I by Cross-Species Domain Exchange Engineering” (International Journal of Molecular Sciences, 2025).
Values belong to the molecule of their own block, whether it stands above or below them.

Tests used:
Conditions in all cases: 50 mM citric acid sodium citrate buffer, pH 4.8, 50 °C
CT-CBH = system: T1, CT-CBH; assay: fluorescence of released methylumbelliferone (ex […], em […] nm), Michaelis-Menten nonlinear fit; type: biochemical, Thermochaetoides thermophila; Trichoderma reesei
T1 construct: gene cbh1; single-chain fusion: C. thermophilum CBHI (GenBank AM711862.1) with its CBM replaced by that of T. reesei CBHI; secreted from T. reesei Tu-6 delta-ku70

TC-CBH = system: T2, TC-CBH; assay: as above; type: biochemical, Trichoderma reesei; Thermochaetoides thermophila
T2 construct: gene cbh1; single-chain fusion: T. reesei CBHI with its CBM replaced by that of C. thermophilum CBHI (GenBank AM711862.1); secreted from T. reesei Tu-6 delta-ku70

purified protein [1] = substrate: Cc1cc(=O)oc2cc(O[C@@H]3O[C@H](CO)[C@@H](O[C@@H]4O[C@H](CO)[C@@H](O)[C@H](O)[C@H]4O)[C@H](O)[C@H]3O)ccc12; assay: purified protein; type: biochemical, Trichoderma reesei
purified protein [2] = substrate: Cc1cc(=O)oc2cc(O[C@@H]3O[C@H](CO)[C@@H](O[C@@H]4O[C@H](CO)[C@@H](O)[C@H](O)[C@H]4O)[C@H](O)[C@H]3O)ccc12; assay: purified protein; type: biochemical, Thermochaetoides thermophila

Km (CT-CBH): 700 µM
Km (TC-CBH): 1200 µM
Molecule: Cc1cc(=O)oc2cc(O[C@@H]3O[C@H](CO)[C@@H](O[C@@H]4O[C@H](CO)[C@@H](O)[C@H](O)[C@H]4O)[C@H](O)[C@H]3O)ccc12 [MUC]

B1: T-CBH (Trichoderma reesei CBHI) (Trichoderma reesei QM6a) (protein)
chain: QSACTLQSETHPPLTWQKCSSGGTCTQQTGSVVIDANWRWTHATNSSTNCYDGNTWSSTLCPDNETCAKNCCLDGAAYASTYGVTTSGNSLSIGFVTQSAQKNVGARLYLMASDTTYQEFTLLGNEFSFDVDVSQLPCGLNGALYFVSMDADGGVSKYPTNTAGAKYGTGYCDSQCPRDLKFINGQANVEGWEPSSNNANTGIGGHGSCCSEMDIWEANSISEALTPHPCTTVGQEICEGDGCGGTYSDNRYGGTCDPDGCDWNPYRLGNTSFYGPGSSFTLDTTKKLTVVTQFETSGAINRYYVQNGVTFQQPNAELGSYSGNELNDDYCTAEEAEFGGSSFSDKGGLTQFKKATSGGMVLVMSLWDDYYANMLWLDSTYPTNETSSTPGAVRGSCSTSSGVPAQVESQSPNAKVTFSNIKFGPIGSTGNPSGGNPPGGNPPGTTTTRRPATTTGSSPGPTQSHYGQCGGIGYSGPTVCASGTTCQVLNPYYSQCL
notes: full length: catalytic domain, linker, CBM; secreted from T. reesei Tu-6 delta-ku70 (cDNA1 promoter); no tag stated; concentrated by 30 kDa ultrafiltration
Km (purified protein [1]): 1300 µM
kcat (purified protein [1]): 1.29 s⁻¹
kcat/Km (purified protein [1]): 1030 M⁻¹ s⁻¹

B2: C-CBH (Chaetomium thermophilum CBHI) (Thermochaetoides thermophila) (protein)
chain: QQACSLTAENHPSLTWKRCTSGGSCSTVNGAVTIDANWRWTHTVSGSTNCYTGNQWDTSLCTDGKSCAQTCCVDGADYSSTYGITTSGDSLNLKFVTKHQYGTNVGSRVYLMENDTKYQMFELLGNEFTFDVDVSNLGCGLNGALYFVSMDADGGMSKYSGNKAGAKYGTGYCDAQCPRDLKFINGEANVGNWTPSTNDANAGFGRYGSCCSEMDVWEANNMATAFTPHPCTTVGQSRCEADTCGGTYSSDRYAGVCDPDGCDFNAYRQGDKTFYGKGMTVDTNKKMTVVTQFHKNSAGVLSEIKRFYVQDGKIIANAESKIPGNPGNSITQEYCDAQKVAFSNTDDFNRKGGMAQMSKALAGPMVLVMSVWDDHYANMLWLDSTYPIDQAGAPGAERGACPTTSGVPAEIEAQVPNSNVIFSNIRFGPIGSTVPGLDGSNPGNPTTTVVPPASTSTSRPTSSTSSPVSTPTGQPGGCTTQKWGQCGGIGYTGCTNCVAGTTCTQLNPWYSQCL
notes: full length: catalytic domain, linker, CBM; secreted from T. reesei Tu-6 delta-ku70 (common signal peptide for all four constructs, cDNA1 promoter); no tag stated; concentrated by 30 kDa ultrafiltration
Km (purified protein [2]): 1100 µM
kcat (purified protein [2]): 1.56 s⁻¹
kcat/Km (purified protein [2]): 1480 M⁻¹ s⁻¹
